# Test results as given in PMC10336103, “ResR/McdR-regulated protein translation machinery contributes to drug resilience in Mycobacterium tuberculosis” (Communications Biology, 2023).
# Molecular target: the molecule itself
# Experiment: SEC; […], pH 8.0, 150 mM NaCl; flow rate 0.4 ml/min; […]
protein,measurement,value
"ResR/McdR (ResR_(1-225)), 6x His-tagged (natural protein, also called Rv1830; ERDMAN_2020; not shown: His6, N-terminal, kept) MTQLVTRARSARGSTLGEQPRQDQLDFADHTGTAGDGNDGAAAASGPVQPGLFPDDSVPDELVGYRGPSACQIAGITYRQLDYWARTSLVVPSIRSAAGSGSQRLYSFKDILVLKIVKRLLDTGISLHNIRVAVDHLRQRGVQDLANITLFSDGTTVYECTSAEEVVDLLQGGQGVFGIAVSGAMRELTGVIADFHGERADGGESIAAPEDELASRRKHRDRKIG",binding result,binds
